Article PMC10374146

Each binder was assayed against Irr (iron response regulator) (Brucella melitensis M5-90, UniProt Q842L5 1-145) (assay: EMSA). Settings: protein: ivt; tags: Halo (pDAP-Halo-Kan vector); chain copies: 2; label: biotin; blunt.

Row | Binder | binding result
1 | BME_RS01725 (membrane protein) (dsDNA) DNA 1: GCATATTTTAGAATTATTCTAAATT DNA 2: AATTTAGAATAATTCTAAAATATGC | binds
2 | BME_RS14525 (ftrA) (dsDNA) DNA 1: CTTAATGAAAAATCTATTCAG DNA 2: CTGAATAGATTTTTCATTAAG | binds
3 | BME_RS13655 (2Fe-2S binding protein) (dsDNA) DNA 1: CGGTTTATTTTGTTTTTTTAGTTTC DNA 2: GAAACTAAAAAAACAAAATAAACCG | binds
4 | BME_RS10660 (zntA) (dsDNA) DNA 1: TCAGGCAAGCTTCATGCCCATATCC DNA 2: GGATATGGGCATGAAGCTTGCCTGA | binds
5 | BME_RS09560 (hypothetical protein) (dsDNA) DNA 1: ATGTTATAGAGCGATTCTGGTT DNA 2: AACCAGAATCGCTCTATAACAT | binds
